The values that follow come from patent publication US20240344241A1, “PROTEINACEOUS MOLECULES AND USES THEREFOR” (THE UNIVERSITY OF QUEENSLAND, priority 2021, published 2024).

In test [1] the target is T1, human β-factor XIIa (human), P00748.
T1 chain 1: NGPLSCGQR
T1 chain 2: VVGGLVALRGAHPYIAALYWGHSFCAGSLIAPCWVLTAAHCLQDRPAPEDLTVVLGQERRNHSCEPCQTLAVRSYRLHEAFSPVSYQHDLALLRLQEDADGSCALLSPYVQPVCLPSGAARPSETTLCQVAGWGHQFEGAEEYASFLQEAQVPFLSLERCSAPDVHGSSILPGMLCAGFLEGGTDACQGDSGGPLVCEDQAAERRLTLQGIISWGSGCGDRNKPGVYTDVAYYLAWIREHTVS
Briefly: competitive protease inhibition assay, 0.5 nM FXIIa, Boc-QGR-MCA substrate (unit as printed; probably pM).

For test [2] the target is unchanged. Briefly: competitive protease inhibition assay, Ac-QRFR-pNA substrate, Morrison Ki.
Test [3] addresses human cationic trypsin (human), P07477. Kind of test: competitive protease inhibition assay (selectivity panel), human trypsin, Boc-VPR-MCA.
For test [4], the target named is T2, recombinant human matriptase (human), Q9Y5Y6.
T2 chain: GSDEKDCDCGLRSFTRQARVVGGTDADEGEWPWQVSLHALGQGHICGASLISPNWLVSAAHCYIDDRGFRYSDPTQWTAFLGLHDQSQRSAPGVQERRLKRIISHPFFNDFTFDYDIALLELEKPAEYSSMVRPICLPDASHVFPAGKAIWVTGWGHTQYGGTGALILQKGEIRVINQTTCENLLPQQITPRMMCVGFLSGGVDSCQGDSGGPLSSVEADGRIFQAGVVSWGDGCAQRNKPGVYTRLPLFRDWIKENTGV
Briefly: competitive protease inhibition assay (selectivity panel), human matriptase, Boc-QAR-MCA.

Test [5] concerns the target T3, human plasmin (human), P00747.
T3 chain: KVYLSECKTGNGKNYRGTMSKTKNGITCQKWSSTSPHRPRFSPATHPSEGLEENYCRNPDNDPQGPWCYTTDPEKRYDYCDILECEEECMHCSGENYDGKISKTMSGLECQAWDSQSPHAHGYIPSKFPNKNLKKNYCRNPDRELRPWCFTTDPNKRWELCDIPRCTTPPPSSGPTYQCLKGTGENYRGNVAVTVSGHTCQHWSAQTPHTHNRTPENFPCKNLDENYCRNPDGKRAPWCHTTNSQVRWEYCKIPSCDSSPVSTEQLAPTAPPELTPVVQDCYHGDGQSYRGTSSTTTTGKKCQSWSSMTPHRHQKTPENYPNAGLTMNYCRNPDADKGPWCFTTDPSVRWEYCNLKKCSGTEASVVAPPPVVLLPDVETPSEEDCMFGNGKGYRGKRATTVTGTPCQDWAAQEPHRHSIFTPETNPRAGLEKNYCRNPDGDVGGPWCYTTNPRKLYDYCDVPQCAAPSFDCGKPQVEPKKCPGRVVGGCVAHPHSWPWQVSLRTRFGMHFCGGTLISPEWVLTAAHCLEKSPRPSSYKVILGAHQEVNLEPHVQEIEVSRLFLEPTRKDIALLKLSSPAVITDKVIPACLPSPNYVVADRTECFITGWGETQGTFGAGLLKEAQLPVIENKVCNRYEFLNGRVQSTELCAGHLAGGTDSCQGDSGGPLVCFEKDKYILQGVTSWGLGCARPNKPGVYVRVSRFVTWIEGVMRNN
Kind of test: competitive protease inhibition assay (selectivity panel), human plasmin, Ac-RM(O2)YR-pNA.

Test [6] concerns the target T1, human β-factor XIIa (human), P00748. Briefly: competitive protease inhibition assay.
Test [7] addresses bovine trypsin (bovine), P00760. Briefly: SPR, bovine trypsin. In general terms: Surface plasmon resonance follows binding to a sensor surface in real time, without labels.
The target in test [8] is T4, FXIIa in human plasma (generated by kaolin activation of FXII in aPTT assays) (human), P00748.
T4 chain: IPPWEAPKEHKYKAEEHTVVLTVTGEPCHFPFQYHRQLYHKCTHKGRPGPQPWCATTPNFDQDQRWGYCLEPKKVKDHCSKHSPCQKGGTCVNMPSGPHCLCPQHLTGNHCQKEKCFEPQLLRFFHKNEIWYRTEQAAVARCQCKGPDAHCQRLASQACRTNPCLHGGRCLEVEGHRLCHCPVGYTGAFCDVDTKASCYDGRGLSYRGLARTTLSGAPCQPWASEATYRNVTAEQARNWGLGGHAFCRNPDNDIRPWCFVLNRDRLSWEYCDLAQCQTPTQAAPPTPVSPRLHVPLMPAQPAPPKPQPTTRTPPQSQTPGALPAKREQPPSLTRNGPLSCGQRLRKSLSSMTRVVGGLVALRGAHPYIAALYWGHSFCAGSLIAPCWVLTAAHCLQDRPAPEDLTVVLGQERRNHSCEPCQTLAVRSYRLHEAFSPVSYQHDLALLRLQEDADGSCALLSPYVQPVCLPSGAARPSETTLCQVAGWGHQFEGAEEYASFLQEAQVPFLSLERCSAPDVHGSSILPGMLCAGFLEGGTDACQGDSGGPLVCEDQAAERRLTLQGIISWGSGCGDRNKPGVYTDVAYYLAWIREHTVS
Kind of test: cell-based or functional assay.

The target in test [9] is bovine trypsin (bovine), P00760. Briefly: SPR, ratio of KD values.
Sequence of bovine trypsin (bovine), P00760 (P00760 24-246): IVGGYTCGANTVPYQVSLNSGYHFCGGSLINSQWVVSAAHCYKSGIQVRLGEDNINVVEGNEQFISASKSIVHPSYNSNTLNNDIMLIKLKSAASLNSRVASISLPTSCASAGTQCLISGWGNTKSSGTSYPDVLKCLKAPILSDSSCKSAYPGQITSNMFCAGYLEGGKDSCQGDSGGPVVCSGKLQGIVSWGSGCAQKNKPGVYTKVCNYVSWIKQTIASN
The target of test [10] is T1, human β-factor XIIa (human), P00748. Briefly: SPR, ratio of KD values.
Test [11] shares this target. Kind of test: competitive protease inhibition assay, ratio of Ki values.
The target is the same in test [12]. Kind of test: SPR (Biacore T200), biotinylated human β-FXIIa captured on chip, peptide as analyte, 1:1 model.

Usually Ki stands for the equilibrium dissociation constant of an inhibitor or competing ligand from its target. GGICPRFGRLCRRDSDCPGACICRATRFCGSGSD (modifications not checked) [Cyclic MCoFx6] gave a Ki in test [1] of 1.09 nM.

As for DGGVCPKILKKCRRDSDCPGACICRATRFCGSGS (modifications not checked) [cMCoTI-fxL5], the Ki in test [2] stood at 66 nM; in test [3], 0.08 nM; in [4], 17 nM; in test [5], 31 nM.

RICPRIGRLCRRDSDCPGACICRATRFCG (modifications not checked) [acyclic variant of MCoFx1 based on a minimized knottin scaffold (29 amino acids)]: the inhibition constant Ki in test [6] is 1.4 nM.

Broadly, the Kd is the equilibrium constant for the complex coming apart. A higher Kd goes with lower affinity. As to DGGICPRIGRLCRRDSDCPGACICRATRFCGSGY (modifications not checked) [MCoFx1 cyclic], the values for the Kd in test [7] and in test [12] were 31.5 nM and 0.9 nM, respectively. Further, in test [8], the EC2× (inhibitor concentration that doubles the clotting time), aPTT assay in human plasma amounted to 702 nM. Moreover, the fold lower affinity than MCoTI-II in [9] stood at 300 fold. Besides, the fold higher affinity than MCoTI-II in [10] is 60 fold. In addition, in [11], the fold more potent than MCoTI-II came to 350 fold. The Ki in [2] was 0.37 nM; in test [3], 1110 nM; in test [4], 9120 nM.
